Legend:
[1] = tested on: resting mouse T-cells; test: Control resting splenocytes / resting T-cells treated with rhAFP/CsA; format: cell-based, mouse (CBA)
Procedure: Control resting splenocytes CBA were treated for the same time with combination of rhAFP/CysA (FIG. 10C). Cytostatic effects were assessed by monitoring of cell proliferation by [^3H]-thymidine incorporation.

[2] = tested on: cells of B-cellular lymphoma Raji; test: Nude line mice implanted with Raji lymphoma cells, tumor size; format: in vivo; conditions: intraperitoneally daily for 20 days, 10 animals, listed as AFP
Excerpt: Anticancer preparations on the base of rAFP and of modified forms thereof may be used for inhibition of the growth of malignant neoplasms, such as primary or metastatic cancer of the liver, blood cancer (leucosis, myeloblastoma, lymphoma), breast cancer, prostate cancer. In order to determine the sensitivity of tumor cells to rAFP, it is possible to use different methods both in vitro and also in vivo. The method of determining activity in vitro is described in the preceding example 8. In order to determine the oncosuppressive action of preparations on the base of AFP in vivo, animal models may be used, for example Nude mice with subcutaneously or intraperitoneally implanted human lines of cancer cells, such as Raji, HepG2, LnCap, MCF-7 and others. For example, cells of B-cellular lymphoma Raji were administered subcutaneously in an amount of 1-5×10^6 per mouse. Administration of the rAFP and derivatives thereof was begun 7 days […] implantation of tumor cells intraperioneally or intravenously in an amount of 1-10 mg/kg. The physiological buffered solution (PBS) was used as a control. The size of the tumor was evaluated by daily measurements with the aid of a micrometer.

[3] = tested on: embryonal fibroblasts of the lung and human retina; test: Growth of primary culture of human embryonal fibroblasts, [H3]-thymidine; format: cell-based; conditions: 24 hours, FIG. 7
Procedure: Proliferation of the cells was measured by a standard method of [H^3]-thymidine incorporation during the last four hours of culture and expressed in percent of the stimulation of growth in test cultures in respect of a control without AFP.
The primary culture of embryonal fibroblasts of the lung and human retina was obtained by treating with 0.25% trypsin solution corresponding tissues of 5-10 week embryos obtained after legal abortions. The cells were cultures in an RPMI-1640 medium in the presence of a 10% calf fetal serum (CFS). The cytostatic activity of AFP was measured as earlier described (Semenkova, L. 1997, Tumor Biol. 18, 261-274; Dudich E. I., et al., 1998, Tumor Biol. 198, 30-40). Cells in an amount of 4×10^4 in a 0.15 ml medium were intensively washed with a fresh to medium and placed in each cell of a 96-lune plate, then different doses of AFP were added and cultures 24 hours. Proliferation of the cells was measured by a standard method by the inclusion of [H^3]-thymidine during the last four hours of culturing.

[4] = tested on: PHA-activated CBA thymocytes; test: PHA-mediated thymocyte proliferation in vitro; format: cell-based, mouse CBA; conditions: AFP alone, 24 hrs after 48 hrs PHA 1.5 μg/ml
[5] = tested on: cells of B-cellular lymphoma Raji; test: Suppression of growth of Raji cells in vitro, [H3]-thymidine incorporation; format: cell-based, human; conditions: 12 hours with AFP, dose-dependent, FIG. 5
Procedure: The functional activity of rAFP and the modified forms thereof were determined according to its capability of suppressing the growth of cells of B-cellular lymphoma Raji in the culture in vitro, as earlier described (Semenkova, L. 1997, Tumor Biol. 18, 261-274; Dudich E. I., et al., 1998, Tumor Biol. 198, 30-40). Preliminarily washed by a fresh medium, Raji cells were placed into each cell of a 96-alverolar plate according to 5×10^3 in 0.1 ml of a medium RPMI-1640 in the presence of a 10% fetal calf serum, then different doses of AFP were added for 12 hours. Proliferation of the cells was measured by a standard method by the introduction of [H^3]-thymidine during the last 4 hours of culturing. For comparison, the dose-dependent reactivity was studies for two samples of AFP of embryonal origin embrAFP and yeast rAFP (FIG. 5). […] Similarly, in order to determine the activity to preparations on the base of AFP in vitro, any other lines of cancer cells may be used that are sensitive to the suppressive action of AFP, such as human hepatocarcinoma HepG2, breast cancer MCF-7, prostate cancer LnCap, myeloblastoma U-937 and others (Semenkova, L. 1997, Tumor Biol. 18, 261-274; Dudich E. I., et al., 1998, Tumor Biol. 198, 30-40).

[6] = tested on: human hepatoma cells HepG2; test: Human hepatoma xenografts in Nude mice, rhAFP monotherapy; format: in vivo, Balb C/Nude mice
Procedure: To study tumor-suppression upon monotherapy with rhAFP we used in vivo model of human hepatoma xenografts in Nude mice. Balb C/Nude mice 8/group were implanted with 12×10^6 human hepatoma cells HepG2 s/c. rhAFP 10 mg/kg was injected i/p 9 times each 48 hrs during 16 days. Effectiveness of treatment was assessed by measuring and weighting of the tumor at the 30th day of experiment and by comparison of the quantity of mice with tumor during time of observation.

[7] = tested on: syngeneic leukemia cells P388; test: Syngeneic acute leukemia P388 in BDF1 mice, survival over 30 days; format: in vivo; conditions: rhAFP 25.0 mg/kg
Excerpt: We have studied the effect of combined treatment with AFP+Dox of acute leukemia in mice BDF1 with transplanted intrapleurally syngeneic P388 leukemia cells. BDF-1 mice (84 male, 28 mice per treatment) were implanted with lethal dose of 12×10^6 syngeneic leukemia cells P388 in the pleural region. Animals were subjected to monotherapy with Dox and combined therapy with rhAFP/Dox upon simultaneous single injection of drugs in various doses. Animal survival was compared over 30 days.

[8] = tested on: human hepatoma cells HepG2; test: Treatment of HepG2 cells in vitro with rhAFP; format: cell-based
Procedure: Results: Without treatment, tumors were determined at 5th-7th day after transplantation.

B1: rhAFP: recombinant human alpha-fetoprotein secreted by yeast Saccharomyces cerevisiae YBS723/pKX, glycosylated, mature human AFP sequence SEQ ID NO:2 (protein, listed as Homo sapiens)
chain: TLHRNEYGIASILDSYQCTAEISLADLATIFFAQFVQEATYKEVSKMVKDALTAIEKPTGDEQSSGCLENQLPAFLEELCHEKEILEKYGHSDCCSQSEEGRHNCFLAHKKPTPASIPLFQVPEPVTSCEAYEEDRETFMNKFIYEIARRHPFLYAPTILLWAARYDKIIPSCCKAENAVECFQTKAATVTKELRESSLLNQHACAVMKNFGTRTFQAITVTKLSQKFTKVNFTEIQKLVLDVAHVHEHCCRGDVLDCLQDGEKIMSYICSQQDTLSNKITECCKLTTLERGQCIIHAENDEKPEGLSPNLNRFLGDRDFNQFSSGEKNIFLASFVHEYSRRHPQLAVSVILRVAKGYQELLEKCFQTENPLECQDKGEEELQKYIQESQALAKRSCGLFQKLGEYYLQNAFLVAYTKKAPQLTSSELMAITRKMAATAATCCQLSEDKLLACGEGAADIIIGHLCIRHEMTPVNPGVGQCCTSSYANRRPCFSSLVVDETYVPPAFSDDKFIFHKDLCQAQGVALQTMKQEFLINLVKQKPQITEEQLEAVIADFSGLLEKCCQGQEQEVCFAEEGQKLISKTRAALGV
modifications: yeast glycosylation
Which results are given for B1?
suppression of resting immune cells ([1]; AFP as modulator of CsA-mediated signals): does not suppress resting immune cells; effect of rhAFP on CsA treatment of resting mouse T-cells ([1]; FIG. 10C): cancellation of the cytotoxic effects of CsA treatment; Results (number of animals - tumor outcome) ([2]; 0.5 mg AFP per injection): 2-stabilization; Results (number of animals - tumor outcome) ([2]; 0.5 mg AFP per injection, animals where tumor did not develop): 3-tumor did not develop; Results (number of animals - tumor outcome) ([2]; 0.5 mg AFP per injection, animals with 50% tumor inhibition): 5-50% inhibition; Results (number of animals - tumor outcome) ([2]; 1 mg AFP per injection): 2-stabilizaton; Results (number of animals - tumor outcome) ([2]; 1 mg AFP per injection, animals where tumor did not develop): 3-tumor did not develop; Results (number of animals - tumor outcome) ([2]; 1 mg AFP per injection, animals with 50% tumor inhibition): 5-50% inhibition; Results (number of animals - tumor outcome) ([2]; 2 mg AFP per injection): 2-stabilization; Results (number of animals - tumor outcome) ([2]; 2 mg AFP per injection, animals where tumor did not develop): 3-tumor did not develop; Results (number of animals - tumor outcome) ([2]; 2 mg AFP per injection, animals with 50% tumor inhibition): 5-50% inhibition; stimulating effect on cellular growth in respect to the control [3]: 50-90%; proliferation of PHA-stimulated thymocytes in response to AFP [4]: distinct dose-dependent growth suppression; cytostatic activity, inhibition of growth of Raji cells [5]: expressed cytostatic activity; tumor growth in the period of treatment ([6]; rhAFP 10 mg/kg i/p 9 times each 48 hrs during 16 days): tumors did not grow in the period of treatment; inhibition of total tumor weight relatively to untreated control ([6]; rhAFP 10 mg/kg i/p 9 times each 48 hrs, tumor weighed at 30th day): 90%; Survival more 30 days [7]: 0; T/C % [7]: 118%; T (survival, days) ([7]; single injection): [15.7/21.8] 7.7 [6.4/ days; effect on HepG2 cells in vitro [8]: dose-dependent growth suppression and apoptosis

From patent US9931373B2, “Method of reducing cancer cell proliferation by administering recombinant alpha-fetoprotein” (priority 2005, dated 2018)
